Key:
[1] = molecular target: programmed cell death protein 1 (PD-1) on tumor infiltrating lymphocytes (human) (UniProt Q15116); experiment: flow cytometry of melanoma tumor digest M1156; EH12.2H7 staining; percent of CD3+ cells stained
[2] = molecular target: programmed cell death protein 1 (PD-1) on tumor infiltrating lymphocytes (human) (UniProt Q15116); experiment: flow cytometry of ovarian tumor digest OV8074; EH12.2H7 staining; percent of CD3+ cells stained
[3] = molecular target: programmed cell death protein 1 (PD-1) on tumor infiltrating lymphocytes (human) (UniProt Q15116); experiment: flow cytometry of head and neck tumor digest H3046; EH12.2H7 staining; percent of CD3+ cells stained

Chain of UniProt Q15116 (Q15116 25-288): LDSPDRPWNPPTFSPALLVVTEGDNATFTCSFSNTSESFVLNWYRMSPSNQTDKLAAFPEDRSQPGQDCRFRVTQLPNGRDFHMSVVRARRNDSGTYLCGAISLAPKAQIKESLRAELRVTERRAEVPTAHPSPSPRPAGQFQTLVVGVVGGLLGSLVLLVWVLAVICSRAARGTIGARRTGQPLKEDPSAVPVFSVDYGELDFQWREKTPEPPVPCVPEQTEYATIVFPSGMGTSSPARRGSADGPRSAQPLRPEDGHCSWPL

B1: anti-PD-1 antibody clone EH12.2H7 (BioLegend, Cat #329906) (antibody, from another filing, V domains shown)
VH: QVQLQQSGAELAKPGASVQMSCKASGYSFTSSWIHWVKQRPGQGLEWIGYIYPSTGFTEYNQKFKDKATLTADKSSSTAYMQLSSLTSEDSAVYYCARWRDSSGYHAMDYWGQGTSVTVSS
VL: DIVLTQSPASLTVSLGQRATISCRASQSVSTSGYSYMHWYQQKPGQPPKLLIKFGSNLESGIPARFSGSGSGTDFTLNIHPVEEEDTATYYCQHSWEIPYTFGGGTKLEIK
Pre-sort % PD-1+ (of CD3+) [1]: 93%
Pre-sort % PD-1+ (of CD3+) [2]: 70%
Pre-sort % PD-1+ (of CD3+) [3]: 13%

Reference: patent publication US20230039976A1
